What was measured:
Experiment in all cases: peptide microarray (RepliTope), 15-mers
Reference peptide no. 1 = molecular target: T1, Reference peptide no. 1
T1 construct: hIL-2 15-mer, first library, on microarray; also called peptide 1
T1 peptide: APTSSSTKKTQLQLE
Method: (§1) Additional incubations are with unrelated antibodies from the same isotype (mouse control IgG2a/lambda and mouse control IgG2a/kappa), and secondary antibodies (anti-mouse IgG (Thermo 84545, label DL650) or anti-mouse IgG (JIR 115-175-072, Label Cy5)) to assess unspecific binding due to the detection antibody. The experiments are performed essentially as described in Maksimov P, et al. 2012, PLoS One 7:e34212. doi:10.1371/journal. pone. 0034212.
(§2) The determination of peptide-antibody binding was performed by RepliTope-analysis where the peptide microarray (triplicate) was incubated with the primary antibody followed by a fluorescently labelled secondary antibody directed against the Fc-part of the primary one. All steps were performed on a TECAN microarray processing station enabling highly reliable and reproducible washing and incubation steps. After performing the incubation steps and subsequent to the final washing steps (to remove the unbound secondary antibodies) the microarrays were dried using a nitrogen stream and scanned in a high resolution microarray scanning system with appropriate wavelength settings. Control incubations were performed with an unrelated antibody having the same isotype to exclude false positive signals.
(§3) The resulting images were analyzed und quantified using spot-recognition software GenePix (Molecular Devices). For each spot, the mean signal intensity was extracted (between 0 and 65535 arbitrary units). For further data evaluation, the MMC2 values were determined. The MMC2 equals the mean value of all three instances on the microarray. Except the coefficient of variation (CV)—standard-deviation divided by the mean value—is larger 0.5, in this case the mean of the two closest values (MC2) is assigned to MMC2.

Reference peptide no. 6 = molecular target: T2, Reference peptide no. 6
T2 construct: hIL-2 15-mer, first library, on microarray; also called peptide 6
T2 peptide: HLLLDLQMILNGINN
Method: as §1, §2, §3

Reference peptide no. 12 = molecular target: T3, Reference peptide no. 12
T3 construct: hIL-2 15-mer, first library, on microarray; also called peptide 12
T3 peptide: PKLTRMLTFKFYMPK
Method: as §1, §2, §3

Reference peptide no. 13 = molecular target: T4, Reference peptide no. 13
T4 construct: hIL-2 15-mer, first library, on microarray; also called peptide 13
T4 peptide: TRMLTFKFYMPKKAT
Method: as §1, §2, §3

Reference peptide no. 15 = molecular target: T5, Reference peptide no. 15
T5 construct: hIL-2 15-mer, first library, on microarray; also called peptide 15
T5 peptide: KFYMPKKATELKHLQ
Method: as §1, §2, §3

Reference peptide no. 18 = molecular target: T6, Reference peptide no. 18
T6 construct: hIL-2 15-mer, first library, parental Cys replaced by Ser, on microarray; also called peptide 18
T6 peptide: ELKHLQSLEEELKPL
Method: as §1, §2, §3

Reference peptide no. 19 = molecular target: T7, Reference peptide no. 19
T7 construct: hIL-2 15-mer, first library, parental Cys replaced by Ser, on microarray; also called peptide 19
T7 peptide: HLQSLEEELKPLEEV
Method: as §1, §2, §3

Reference peptide no. 21 = molecular target: T8, Reference peptide no. 21
T8 construct: hIL-2 15-mer, first library, on microarray; also called peptide 21
T8 peptide: EELKPLEEVLNLAQS
Method: as §1, §2, §3

Reference peptide no. 25 = molecular target: T9, Reference peptide no. 25
T9 construct: hIL-2 15-mer, first library, on microarray; also called peptide 25
T9 peptide: AQSKNFHLRPRDLIS
Method: as §1, §2, §3

Reference peptide no. 27 = molecular target: T10, Reference peptide no. 27
T10 construct: hIL-2 15-mer, first library, on microarray; also called peptide 27
T10 peptide: HLRPRDLISNINVIV
Method: as §1, §2, §3

Reference peptide no. 28 = molecular target: T11, Reference peptide no. 28
T11 construct: hIL-2 15-mer, first library, on microarray; also called peptide 28
T11 peptide: PRDLISNINVIVLEL
Method: as §1, §2, §3

Reference peptide no. 30 = molecular target: T12, Reference peptide no. 30
T12 construct: hIL-2 15-mer, first library, on microarray; also called peptide 30
T12 peptide: NINVIVLELKGSETT
Method: as §1, §2, §3

Reference peptide no. 35 = molecular target: T13, Reference peptide no. 35
T13 construct: hIL-2 15-mer, first library, parental Cys replaced by Ser, on microarray; also called peptide 35
T13 peptide: FMSEYADETATIVEF
Method: as §1, §2, §3

Reference peptide no. 36 = molecular target: T14, Reference peptide no. 36
T14 construct: hIL-2 15-mer, first library, on microarray; also called peptide 36
T14 peptide: EYADETATIVEFLNR
Method: as §1, §2, §3

Reference peptide no. 39 = molecular target: T15, Reference peptide no. 39
T15 construct: hIL-2 15-mer, first library, parental Cys replaced by Ser, on microarray; also called peptide 39
T15 peptide: VEFLNRWITFSQSII
Method: as §1, §2, §3

Reference peptide no. 40 = molecular target: T16, Reference peptide no. 40
T16 construct: hIL-2 15-mer, first library, parental Cys replaced by Ser, on microarray; also called peptide 40
T16 peptide: LNRWITFSQSIISTL
Method: as §1, §2, §3

Reference peptide no. 41 = molecular target: T17, Reference peptide no. 41
T17 construct: hIL-2 15-mer, first library, parental Cys replaced by Ser, on microarray; also called peptide 41
T17 peptide: NRWITFSQSIISTLT
Method: as §1, §2, §3

Reference peptide no. 43 = molecular target: T18, Reference peptide no. 43
T18 construct: second library: peptide 11 with F(62) to Ala; also called peptide 43
T18 peptide: YKNPKLTRMLTAKFY
Method: as §1, §2, §3

Reference peptide no. 44 = molecular target: T19, Reference peptide no. 44
T19 construct: second library: peptide 12 with F(62) to Ala; also called peptide 44
T19 peptide: PKLTRMLTAKFYMPK
Method: as §1, §2, §3

Reference peptide no. 46 = molecular target: T20, Reference peptide no. 46
T20 construct: second library: peptide 14 with F(62) to Ala; also called peptide 46
T20 peptide: LTAKFYMPKKATELK
Method: as §1, §2, §3

Reference peptide no. 51 = molecular target: T21, Reference peptide no. 51
T21 construct: second library: peptide 15 with Y(65) to Ala; also called peptide 51
T21 peptide: KFAMPKKATELKHLQ
Method: as §1, §2, §3

Reference peptide no. 57 = molecular target: T22, Reference peptide no. 57
T22 construct: second library: peptide 21 with L(92) to Ala; also called peptide 57
T22 peptide: EELKPLEEVLNAAQS
Method: as §1, §2, §3

Reference peptide no. 58 = molecular target: T23, Reference peptide no. 58
T23 construct: second library: peptide 22 with L(92) to Ala; also called peptide 58
T23 peptide: KPLEEVLNAAQSKNF
Method: as §1, §2, §3

Reference peptide no. 59 = molecular target: T24, Reference peptide no. 59
T24 construct: second library: peptide 23 with L(92) to Ala; also called peptide 59
T24 peptide: EEVLNAAQSKNFHLR
Method: as §1, §2, §3

- binding result (Reference peptide no. 1): no binding
- binding result (Reference peptide no. 6): no binding
- binding result (Reference peptide no. 12): no binding
- binding result (Reference peptide no. 13): no binding
- binding result (Reference peptide no. 15): no binding
- binding result (Reference peptide no. 18): no binding
- binding result (Reference peptide no. 19): no binding
- binding result (Reference peptide no. 21): no binding
- binding result (Reference peptide no. 25): no binding
- binding result (Reference peptide no. 27): no binding
- binding result (Reference peptide no. 28): no binding
- binding result (Reference peptide no. 30): no binding
- binding result (Reference peptide no. 35): no binding
- binding result (Reference peptide no. 36): no binding
- binding result (Reference peptide no. 39): no binding
- binding result (Reference peptide no. 40): no binding
- binding result (Reference peptide no. 41): no binding
- binding result (Reference peptide no. 43): no binding
- binding result (Reference peptide no. 44): no binding
- binding result (Reference peptide no. 46): no binding
- binding result (Reference peptide no. 51): no binding
- binding result (Reference peptide no. 57): no binding
- binding result (Reference peptide no. 58): no binding
- binding result (Reference peptide no. 59): no binding
B1: NARA1 (antibody, mouse IgG2a, kappa, V domains shown)
VH: QVQLQQSGAELVRPGTSVKVSCKASGYAFTNYLIEWVKQRPGQGLEWIGVINPGSGGTNYNEKFKGKATLTADKSSSTAYMQLSSLTSDDSAVYFCARWRGDGYYAYFDVWGAGTTVTVSS
VL: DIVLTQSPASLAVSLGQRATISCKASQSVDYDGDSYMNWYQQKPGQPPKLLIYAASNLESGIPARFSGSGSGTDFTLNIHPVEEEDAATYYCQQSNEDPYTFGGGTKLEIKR
notes: Mouse monoclonal from hybridoma; Isotype controls used were mouse IgG2a; also called anti-IL2 (NARA1) antibody; monoclonal antibody NARA1
